Changes are numbered by the printed parent chain.
T1: glypican-2 (GPC2), as used in the binding affinity test (UniProt Q8N158 24-553, limits assumed)
T1 construct: It states neither the form of the antigen nor the assay
T1 sequence (looked up): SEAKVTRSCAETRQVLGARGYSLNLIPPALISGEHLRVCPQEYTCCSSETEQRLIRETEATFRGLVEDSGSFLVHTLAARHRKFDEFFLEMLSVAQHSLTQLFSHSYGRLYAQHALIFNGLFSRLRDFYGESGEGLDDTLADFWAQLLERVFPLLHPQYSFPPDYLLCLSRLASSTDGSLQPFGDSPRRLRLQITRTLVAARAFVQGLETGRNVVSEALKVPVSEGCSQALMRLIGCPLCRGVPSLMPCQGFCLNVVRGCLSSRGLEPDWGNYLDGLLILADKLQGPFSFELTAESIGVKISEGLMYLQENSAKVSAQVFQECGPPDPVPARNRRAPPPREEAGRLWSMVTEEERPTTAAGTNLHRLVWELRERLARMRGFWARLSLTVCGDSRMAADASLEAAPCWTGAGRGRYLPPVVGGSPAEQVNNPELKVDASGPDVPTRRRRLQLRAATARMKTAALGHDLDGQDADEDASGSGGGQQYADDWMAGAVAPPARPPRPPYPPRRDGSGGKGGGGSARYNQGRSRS

B1: CT3 antibody (parental murine GPC2-specific monoclonal antibody) (antibody, V domains shown)
VH: EVQLQQSGPELVKPGASVKMSCKASRFTFTDYNIHWVKQSPGKTLEWIGYINPNNGDIFYKQKFNGKATLTINKSSNTAYMELRSLTSEDSAVYYCVRSSNIRYTFDRFFDVWGTGTTVTVSS
VL: ENVLTQSPAIMSASLGEKVTMSCRASSSVNYIYWYQQKSDASPKLWIYYTSNLAPGVPARFSGSGSGNSYSLTISSMEGEDAATYYCQQFSSSPSTFGTGTKLELK
notes: also called parental CT3 antibody; murine antibody CT3
B2: hCT3-1 (humanized CT3 antibody) (antibody, V domains shown)
VH: QVQLVQSGAEVKKPGASVKVSCKASRFTFTDYNIHWVRQAPGQGLEWIGYINPNNGDIFYKQKFNGRVTLTADKSTSTAYMELSSLTSEDTAVYYCVRSSNIRYTFDRFFDVWGQGTLVTVSS
VL: DVVMTQSPLSLPVTPGEPASISCRASSSVNYIYWYLQKPGQSPQLWIYYTSNLAPGVPDRFSGSGSGTDFTLKISRVEAEDVGVYYCQQFSSSPSTFGQGTKLEIK
B3: hCT3-2 (humanized CT3 antibody) (antibody, V domains shown)
VH: QVQLVQSGAEVKKPGASVKVSCKASRFTFTDYNIHWVRQAPGQRLEWIGYINPNNGDIFYKQKFNGRVTITRDTSASTAYMELSSLRSEDTAVYYCVRSSNIRYTFDRFFDVWGQGTLVTVS
VL: DVVMTQSPAFLSVTPGEKVTITCRASSSVNYIYWYQQKPDQAPKLWIYYTSNLAPGVPSRFSGSGSGTDFTFTISSLEAEDAATYYCQQFSSSPSTFGQGTKLEIK
B4: hCT3-4 (humanized CT3 antibody) (antibody, V domains shown)
VH: B3 VH
VL: EIVLTQSPATLSLSPGERATLSCRASSSVNYIYWYQQKPGQAPRLWIYYTSNLAPGIPARFSGSGSGTDFTLTISSLEPEDFAVYYCQQFSSSPSTFGQGTKLEIK
B5: hCT3-3 (humanized CT3 antibody) (antibody, V domains shown)
VH: B3 VH with R44G, R67K, V68A, I70M, R72V, A76T, A79V
VL: DIQMTQSPSSLSASVGDRVTITCRASSSVNYIYWYQQKSGKAPKLWIYYTSNLAPGVPSRFSGSGSGTDFTLTISSLQPEDFATYYCQQFSSSPSTFGQGTKLEIK

target: T1, glypican-2 (GPC2), as used in the …; assay: binding affinity for GPC2; method not stated (graphs in FIGS. 7A-7B)

Binder | binding affinity [nM]
B1 | 2.2
B2 | 4
B3 | 3.6
B4 | 3.3
B5 | 2.5

target: T1, glypican-2 (GPC2), as used in the …; assay: sensorgrams, Response (nm) against Time (unit inferred), traces at 200, 100 and 50 nM; instrument and immobilised partner not stated

Binder | Kd [nM]
B2 | 4
B3 | 3.6

target: T1, glypican-2 (GPC2), as used in the …; assay: as above; remark: another data set of the same source

Binder | Kd [nM]
B4 | 3.3
B5 | 2.5

Source: US20250144214A1 (US Dept. of Health and Human Services, published 2025)
